According to paper PMC3376891 (Cell, 2012):

Assays:
[1] = Far-UV CD spectroscopy of peptides; type: physicochemical; conditions: aqueous solution / buffer (Figure S2D)
[2] = salt-free buffer; ref Bowie and Sauer, 1989; cited from earlier work

Substance: neuropeptide Y [Pep1]
- Secondary structure by far-UV CD [1]: α helix

Substance: Arc: 55 aa Arc repressor, a client protein of both chaperones (MKGMSKMPQFNLRWPREVLDLVRKVAEENGRSVNSEIYQRVMESFKKEGRIGA; UniProt P03050 1-53, looked up)
- Unfolding behavior of Arc upon dilution [2]: rapidly dissociate and slowly unfold upon dilution into salt-free buffer without forming aggregates
